Measured values: PMC9555707
Values joined by “and” are separate entries in the source; they are usually repeats but may differ in a detail not shown here. Equal entries are not always repeated.

Target: SmT1v3-R, tagless resistin-trimerized SARS-CoV-2 spike ectodomain, reference strain (SARS-CoV-2 | human) (UniProt P0DTC2)
Test: SEC-MALS; UPLC-SEC on a 4.6 x 300 mm Acquity BEH450 column in PBS + 0.02% Tween-20, coupled to a miniDAWN MALS detector and Optilab T-rEX refractometer; trimer and hexamer populations by molecular weight

SmT1v3-R, tagless resistin-trimerized SARS-CoV-2 spike ectodomain, reference strain (from UniProt P0DTC2 14-1208; Q9HD89-1 23-108)
percent of the protein as hexamer: 3%
percent of the protein as trimer: 96%
stoichiometry N: 3 and 6
